The source of these data is patent publication US20250376536A1 (Bristol-Myers Squibb, published 2025).

Where a chain is given by its changes, count along the chain named. Numbers in names are those of the source.

One assay concerns the target T1, human FAP on cells (human, UniProt Q12884 1-760).
T1 construct: also called FAP-positive HEK cells (human); human FAP-expressing HEK cells
T1 sequence: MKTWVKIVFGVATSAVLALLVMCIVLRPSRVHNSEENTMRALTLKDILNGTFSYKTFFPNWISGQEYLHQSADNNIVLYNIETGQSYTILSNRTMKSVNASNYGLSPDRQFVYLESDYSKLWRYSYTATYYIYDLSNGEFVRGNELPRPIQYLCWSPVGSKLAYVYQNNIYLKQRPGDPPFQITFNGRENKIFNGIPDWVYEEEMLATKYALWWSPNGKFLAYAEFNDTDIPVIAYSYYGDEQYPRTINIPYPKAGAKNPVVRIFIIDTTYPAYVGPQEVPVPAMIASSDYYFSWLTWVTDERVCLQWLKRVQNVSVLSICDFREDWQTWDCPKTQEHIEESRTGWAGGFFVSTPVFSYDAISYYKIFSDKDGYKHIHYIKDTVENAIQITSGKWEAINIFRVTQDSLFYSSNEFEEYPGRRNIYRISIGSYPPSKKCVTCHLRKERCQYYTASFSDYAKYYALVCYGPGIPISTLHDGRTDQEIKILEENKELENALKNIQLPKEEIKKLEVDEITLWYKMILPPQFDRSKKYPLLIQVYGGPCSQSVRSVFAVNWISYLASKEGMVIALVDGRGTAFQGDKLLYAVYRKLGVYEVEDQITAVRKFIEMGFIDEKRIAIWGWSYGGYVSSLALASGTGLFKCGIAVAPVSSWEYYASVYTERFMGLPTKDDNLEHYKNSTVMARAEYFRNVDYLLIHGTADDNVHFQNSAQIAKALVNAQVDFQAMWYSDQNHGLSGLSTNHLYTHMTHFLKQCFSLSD
In words: binding to human FAP-positive HEK cells.

Assay [1] concerns the target T2, human CD40 on cells (human, UniProt P25942 21-277).
T2 construct: Endogenous CD40 on human primary cells and Raji cells; also called CD40-positive macrophage; CD40-positive B cell
The assay is described as follows: binding to human CD40-positive B cells.

Assay [2] deals with T3, cynomolgus (cyno) FAP protein (cynomolgus monkey).
T3 chain: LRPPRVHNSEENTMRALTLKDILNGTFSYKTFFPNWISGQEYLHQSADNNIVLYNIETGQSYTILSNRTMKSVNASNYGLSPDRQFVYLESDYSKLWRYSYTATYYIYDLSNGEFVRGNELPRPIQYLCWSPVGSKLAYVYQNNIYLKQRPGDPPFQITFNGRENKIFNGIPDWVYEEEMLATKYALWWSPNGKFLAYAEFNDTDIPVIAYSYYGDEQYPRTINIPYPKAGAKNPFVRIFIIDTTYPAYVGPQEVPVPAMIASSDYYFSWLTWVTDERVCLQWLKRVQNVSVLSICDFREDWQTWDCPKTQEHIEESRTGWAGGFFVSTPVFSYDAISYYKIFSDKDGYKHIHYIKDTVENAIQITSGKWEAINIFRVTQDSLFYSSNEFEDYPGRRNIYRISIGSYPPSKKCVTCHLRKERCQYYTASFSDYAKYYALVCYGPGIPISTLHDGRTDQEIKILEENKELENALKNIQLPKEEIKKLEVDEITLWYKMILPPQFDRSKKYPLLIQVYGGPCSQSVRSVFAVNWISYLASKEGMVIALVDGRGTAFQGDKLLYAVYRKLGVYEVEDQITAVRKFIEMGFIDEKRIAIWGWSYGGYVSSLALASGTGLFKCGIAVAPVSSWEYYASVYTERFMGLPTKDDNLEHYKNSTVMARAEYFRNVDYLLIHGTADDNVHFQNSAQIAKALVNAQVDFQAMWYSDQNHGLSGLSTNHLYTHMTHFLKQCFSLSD
The assay is described as follows: SPR. The method, then: (§1) CD40.9H3×FAP.LP62 and an analog of RO7300490 (see SEQ ID NOs: 39-42) binding to human and cynomolgus (cyno) CD40 and FAP was evaluated by surface plasmon resonance (SPR) using human and cyno CD40 and FAP proteins. […] The rates of association and dissociation of CD40.9H3×FAP.LP62 and the analog of RO7300490 to human CD40 and FAP are summarized in Table 2.

The target of a further assay is T4, human FAP protein (human, UniProt Q12884 26-760).
T4 sequence: T3 chain with P4S, F236V, D392E
The assay is described as follows: SPR. The method, then:
as §1

In assay [3] the target is cynomolgus (cyno) CD40 protein (cynomolgus monkey, UniProt G7PG38 21-193). The assay is described as follows: SPR. The method, then:
as §1

The target in the next assay is T5, human CD40 protein (human, UniProt P25942 21-193).
T5 construct: Protein used in SPR
The assay is described as follows: SPR. The method, then:
as §1

In assay [4] the target is T2, human CD40 on cells. The assay is described as follows: binding to human CD40-positive macrophages.

T5 sequence (P25942 21-193 limits assumed): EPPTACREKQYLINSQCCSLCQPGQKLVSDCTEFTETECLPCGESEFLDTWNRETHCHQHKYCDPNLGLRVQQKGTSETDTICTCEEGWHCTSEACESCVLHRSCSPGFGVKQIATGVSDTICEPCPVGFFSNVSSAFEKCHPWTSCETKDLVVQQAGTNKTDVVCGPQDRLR
T2 sequence (P25942 21-277): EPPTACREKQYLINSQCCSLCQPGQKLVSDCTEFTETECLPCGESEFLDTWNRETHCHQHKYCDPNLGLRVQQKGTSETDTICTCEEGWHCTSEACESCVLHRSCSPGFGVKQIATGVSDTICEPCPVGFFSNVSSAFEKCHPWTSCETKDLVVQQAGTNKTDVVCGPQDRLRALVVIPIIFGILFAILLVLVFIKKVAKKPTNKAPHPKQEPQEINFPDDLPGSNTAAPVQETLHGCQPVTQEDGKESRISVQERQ

B1: CD40.9H3×FAP.LP62 bispecific antibody (bispecific antibody, human IgG1, kappa, L234A L235A)
heavy 1: EVQLVESGGGLVQPGGSLRLSCAASGFTFIGYSMNWVRQAPGKGLEWVSYISSYESTIYYADSVKGRFTISRDNAKNSLYLQMNSLRAEDTAVYYCARSRITLVRGVPRYFDLWGRGTLVTVSSASTKGPSVFPLAPSSKSTSGGTAALGCLVKDYFPEPVTVSWNSGALTSGVHTFPAVLQSSGLYSLSSVVTVPSSSLGTQTYICNVNHKPSNTKVDKKVEPKSCDKTHTCPPCPAPEAAGGPSVFLFPPKPKDTLMISRTPEVTCVVVSVSHEDPEVKFNWYVDGVEVHNAKTKPREEQYNSTYRVVSVLTVLHQDWLNGKEYKCKVSNKALPAPIEKTISKAKGQPREPQVYVLPPSREEMTKNQVSLLCLVKGFYPSDIAVEWESNGQPENNYLTWPPVLDSDGSFFLYSKLTVDKSRWQQGNVFSCSVMHEALHNHYTQKSLSLSPG
heavy 2: EVQLVESGGGLVQPGGSLRLSCAASGFTFIGYSMNWVRQAPGKGLEWVSYISSYESTIYYADSVKGRFTISRDNAKNSLYLQMNSLRAEDTAVYYCARSRITLVRGVPRYFDLWGRGTLVTVSSASTKGPSVFPLAPSSKSTSGGTAALGCLVKDYFPEPVTVSWNSGALTSGVHTFPAVLQSSGLYSLSSVVTVPSSSLGTQTYICNVNHKPSNTKVDKKVEPKSCDKTHTCPPCPAPEAAGGPSVFLFPPKPKDTLMISRTPEVTCVVVSVSHEDPEVKFNWYVDGVEVHNAKTKPREEQYNSTYRVVSVLTVLHQDWLNGKEYKCKVSNKALPAPIEKTISKAKGQPREPQVYVYPPSREEMTKNQVSLTCLVKGFYPSDIAVEWESNGQPENNYKTTPPVLDSDGSFALVSKLTVDKSRWQQGNVFSCSVMHEALHNHYTQKSLSLSPGGGSGGGGSGGGGSGGGGSEVQLLESGGGLVQPGGSLRLSCAASGFTFSSRGMSWVRQAPGKCLEWVSFISSSGTYVYYADSVKGRFTISRDNSKNTLYLQMNSLRAEDTAVYYCARDLPRTGVYFGMDVWGQGTTVTVSSGGGGSGGGGSGGGGSGGGGSDIQMTQSPSSLSASVGDRVTITCRASQSIFNYLNWYQQKPGKAPKLLIYGASTLQSGVPSRFSGSGSGTDFTLTISSLQPEDFATYYCQESYSTPYTFGCGTKVEIK
light: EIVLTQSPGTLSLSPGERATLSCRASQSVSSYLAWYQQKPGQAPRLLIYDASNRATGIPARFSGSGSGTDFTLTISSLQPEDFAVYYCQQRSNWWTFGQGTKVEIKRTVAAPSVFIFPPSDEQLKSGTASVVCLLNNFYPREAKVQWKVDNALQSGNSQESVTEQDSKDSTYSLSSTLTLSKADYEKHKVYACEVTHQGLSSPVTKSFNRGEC
notes: 2+1 format: two anti-CD40 9H3 Fabs on an IgG1 Fc with L234A, L235A, D265S and heterodimerization mutations; Ratio 1:1:2
Regarding B1, the values for the EC50 with human FAP on cells, with human CD40 on cells [1] and with human CD40 on cells [4] were 3.72 nM, 7.53 nM and 11.9 nM, respectively. For the same molecule, the Kd in assay [2] was found to be 5.6 nM; with human FAP protein, 1.96 nM; in assay [3], 97 nM; with human CD40 protein it was 92 nM. The koff was determined as 0.00276 s⁻¹ in assay [2], 0.00147 s⁻¹ with human FAP protein, 0.0052 s⁻¹ in assay [3] and 0.0052 s⁻¹ in the assay with human CD40 protein. Moreover, the kon in assay [2] amounted to 500000 M⁻¹ s⁻¹; in the assay with human FAP protein, 750000 M⁻¹ s⁻¹; in assay [3] it was 53000 M⁻¹ s⁻¹; with human CD40 protein, 57000 M⁻¹ s⁻¹.
